The values below come from publication PMC3618186, “Dynein and Dynactin Leverage Their Bivalent Character to Form a High-Affinity Interaction” (PLoS ONE, 2013).

In general, stoichiometry N refers to a count of units in the complex or per binding partner. By Kd is commonly meant the free concentration of one partner at which half of the binding sites on the other are occupied at equilibrium, for simple one-to-one binding. Low readings indicate higher affinity, high ones lower affinity.

The labels stand for the following.
B4: dynactin p150^Glued coiled-coil 1B (CC1B), residues 381–530 (domain or fragment, R. norvegicus, UniProt P28023 381-530, looked up)
chain: SSEKQEHVKLQKLMEKKNQELEVVRQQRERLQEELSQAESTIDELKEQVDAALGAEEMVEMLTDRNLNLEEKVRELRETVGDLEAMNEMNDELQENARETELELREQLDMAGARVREAQKRVEAAQETVADYQQTIKKYRQLTAHLQDVN
notes: also called p150^Glued CC1B; source: E. coli BL21 Star (DE3), purified (Ni-NTA, Ulp1 cleavage, HiTrap Q XL, Superdex 75); not shown: His6, N-terminal, cleaved; SMT3 (S. cerevisiae SUMO), N-terminal, cleaved

Data set [1] deals with the molecule itself. Description: not stated; unpublished observation.
Data set [2] concerns the molecule itself. As to the kind of experiment: AUC; sedimentation equilibrium of the p150Glued fragments alone, 4°C, 1x PBS, 1 mM TCEP; monomer-dimer model (dimer to monomers).
Data set [3] concerns the target B4. As to the kind of experiment: native gel or EMSA; native PAGE; purified proteins incubated at 25°C for five minutes in equimolar or two fold molar excess; 12% gels with a stacking gel at pH 7.4 or 8–25% gradient gels. Particulars: both partners purified. For orientation: Mobility shift assays separate free from complexed probe on a gel.

B1: p150^Glued CC2 (residues 928–1049) (domain or fragment, rat (numbering stated as rat, p-0002), UniProt P28023 928-1049, looked up)
chain: AALRAEITDAEGLGLKLEDRETVIKELKKSLKIKGEELSEANVRLSLLEKKLDSAAKDADERIEKVQTRLEETQTLLRKKEKEFEETMDALQADIDQLEAEKTELKQRLNSQSKRTIEGLRG
notes: Unpublished observation of the authors
With B1, the “stoichiometry N” value in data set [1] was 2.

B2: dynactin p150^Glued coiled-coil 1A (CC1A), residues 204–348 (domain or fragment, R. norvegicus, UniProt P28023 204-348, looked up)
chain: PGAAPPLPSPSKEEEGLRDQVRDLEEKLETLRLKRSEDKAKLKELEKHKIQLEQVQEWKSKMQEQQADLQRRLKEAKEAKEALEAKERYMEEMADTADAIEMATLDKEMAEERAESLQQEVEALKERVDELTTDLEILKAEIEEK
notes: R. norvegicus dynactin p150Glued, residues 204-348; Dimer at 4°C by sedimentation equilibrium; source: E. coli BL21 Star (DE3), purified (Ni-NTA, Ulp1 cleavage, HiTrap Q XL, Superdex 75); not shown: His6, N-terminal, cleaved; SMT3 (S. cerevisiae SUMO), N-terminal, cleaved
Regarding B2, in data set [2], the equilibrium dissociation constant (Kd) is under 40 nM and the “stoichiometry N” value stood at 2.

B3: S. cerevisiae dynein intermediate chain Pac11, residues 1–86, wild type (domain or fragment, UniProt P40960 1-86, looked up)
chain: MERLKQLEEKRRQLKELRERRKQASLFPGSETMGHHPTEVHAKATMVSVSVQTDMEEGSKIQEPQSAYLRRKEVITYDKGIQTDQI
notes: S. cerevisiae dynein intermediate chain Pac11, residues 1-86; Cloned in pGEX 6P-3; also called wt-Pac11^1–86; Pac11 1–86; source: E. coli BL21 Star (DE3), purified (Glutathione Sepharose 4B, precision protease, Superdex 75)
Turning to B3, the binding result in data set [3] was “binds”.
Regarding B4, in data set [2], the equilibrium dissociation constant (Kd) is under 60 nM and the “stoichiometry N” value came out at 2.
